In publication PMC5716193 one finds stoichiometry N data, which are given here for two substances.

Assay [1] deals with Opbp[1–174] fragment after deletion of TRX (Drosophila). Briefly: cross-linking.
Assay [2] addresses Thioredoxin-tagged Opbp[114–174] (Drosophila). The assay can be described thus: cross-linking.

With “Opbp[1–174] fragment after deletion of TRX (domain or fragment)”, in assay [1], the stoichiometry N (usually a count of units in the complex or per binding partner) was found to be 2. In assay [2], “Thioredoxin-tagged Opbp[114–174] (domain or fragment)” gave a stoichiometry N of 2.
